Reference: patent publication US20190381086A1, “INHIBITION OF NEDDYLATION USING GLYCYL-tRNA SYNTHETASE INHIBITORS” (The Scripps Research Institute, priority 2015, published 2019)

B1: ΔInsertion 1 GlyRS (F147-F224 replaced by GSGSGG) (enzyme)
chain: MDGAGAEEVLAPLRLAVRQQGDLVRKLKEDKAPQVDVDKAVAELKARKRVLEAKELALQPKDDIVDRAKMEDTLKRRFFYDQAFAIYGGVSGLYDFGPVGCALKNNIIQTWRQHFIQEEQILEIDCTMLTPEPVLKTSGHVDKFADGSGSGGNLMFKTFIGPGGNMPGYLRPETAQGIFLNFKRLLEFNQGKLPFAAAQIGNSFRNEISPRSGLIRVREFTMAEIEHFVDPSEKDHPKFQNVADLHLYLYSAKAQVSGQSARKMRLGDAVEQGVINNTVLGYFIGRIYLYLTKVGISPDKLRFRQHMENEMAHYACDCWDAESKTSYGWIEIVGCADRSCYDLSCHARATKVPLVAEKPLKEPKTVNVVQFEPSKGAIGKAYKKDAKLVMEYLAICDECYITEMEMLLNEKGEFTIETEGKTFQLTKDMINVKRFQKTLYVEEVVPNVIEPSFGLGRIMYTVFEHTFHVREGDEQRTFFSFPAVVAPFKCSVLPLSQNQEFMPFVKELSEALTRHGVSHKVDDSSGSIGRRYARTDEIGVAFGVTIDFDTVNKTPHTATLRDRDSMRQIRAEISELPSIVQDLANGNITWADVEARYPLFEGQETGKKETIEE
B2: full-length human GlyRS (enzyme)
chain: MDGAGAEEVLAPLRLAVRQQGDLVRKLKEDKAPQVDVDKAVAELKARKRVLEAKELALQPKDDIVDRAKMEDTLKRRFFYDQAFAIYGGVSGLYDFGPVGCALKNNIIQTWRQHFIQEEQILEIDCTMLTPEPVLKTSGHVDKFADFMVKDVKNGECFRADHLLKAHLQKLMSDKKCSVEKKSEMESVLAQLDNYGQQELADLFVNYNVKSPITGNDLSPPVSFNLMFKTFIGPGGNMPGYLRPETAQGIFLNFKRLLEFNQGKLPFAAAQIGNSFRNEISPRSGLIRVREFTMAEIEHFVDPSEKDHPKFQNVADLHLYLYSAKAQVSGQSARKMRLGDAVEQGVINNTVLGYFIGRIYLYLTKVGISPDKLRFRQHMENEMAHYACDCWDAESKTSYGWIEIVGCADRSCYDLSCHARATKVPLVAEKPLKEPKTVNVVQFEPSKGAIGKAYKKDAKLVMEYLAICDECYITEMEMLLNEKGEFTIETEGKTFQLTKDMINVKRFQKTLYVEEVVPNVIEPSFGLGRIMYTVFEHTFHVREGDEQRTFFSFPAVVAPFKCSVLPLSQNQEFMPFVKELSEALTRHGVSHKVDDSSGSIGRRYARTDEIGVAFGVTIDFDTVNKTPHTATLRDRDSMRQIRAEISELPSIVQDLANGNITWADVEARYPLFEGQETGKKETIEE
B3: ΔF84-L93 GlyRS (F84-L93 replaced by GGG) (enzyme)
chain: MDGAGAEEVLAPLRLAVRQQGDLVRKLKEDKAPQVDVDKAVAELKARKRVLEAKELALQPKDDIVDRAKMEDTLKRRFFYDQAGGGYDFGPVGCALKNNIIQTWRQHFIQEEQILEIDCTMLTPEPVLKTSGHVDKFADFMVKDVKNGECFRADHLLKAHLQKLMSDKKCSVEKKSEMESVLAQLDNYGQQELADLFVNYNVKSPITGNDLSPPVSFNLMFKTFIGPGGNMPGYLRPETAQGIFLNFKRLLEFNQGKLPFAAAQIGNSFRNEISPRSGLIRVREFTMAEIEHFVDPSEKDHPKFQNVADLHLYLYSAKAQVSGQSARKMRLGDAVEQGVINNTVLGYFIGRIYLYLTKVGISPDKLRFRQHMENEMAHYACDCWDAESKTSYGWIEIVGCADRSCYDLSCHARATKVPLVAEKPLKEPKTVNVVQFEPSKGAIGKAYKKDAKLVMEYLAICDECYITEMEMLLNEKGEFTIETEGKTFQLTKDMINVKRFQKTLYVEEVVPNVIEPSFGLGRIMYTVFEHTFHVREGDEQRTFFSFPAVVAPFKCSVLPLSQNQEFMPFVKELSEALTRHGVSHKVDDSSGSIGRRYARTDEIGVAFGVTIDFDTVNKTPHTATLRDRDSMRQIRAEISELPSIVQDLANGNITWADVEARYPLFEGQETGKKETIEE

Tests used:
[1] = molecular target: Ubc12^N8: NEDD8-conjugated Ubc12 (C111S, stable ester linkage to His-SUMO-tagged NEDD8) (UniProt P61081); assay: biolayer interferometry, Ubc12^N8 immobilized
[2] = molecular target: Ubc12^N8: NEDD8-conjugated Ubc12 (C111S, stable ester linkage to His-SUMO-tagged NEDD8) (UniProt P61081); assay: biolayer interferometry (Octet), 30 °C, Ubc12^N8 (100 nM) immobilized on sensor tips, GlyRS 0.25 µM; in the presence of 1.0 mM of the small molecule GlySA
[3] = molecular target: Ubc12^N8: NEDD8-conjugated Ubc12 (C111S, stable ester linkage to His-SUMO-tagged NEDD8) (UniProt P61081); assay: biolayer interferometry (Octet), 30 °C, Ubc12^N8 (100 nM) immobilized on sensor tips, GlyRS 0.25 µM; curve 'Blank' (no GlySA)
[4] = molecular target: Ubc12^N8: NEDD8-conjugated Ubc12 (C111S, stable ester linkage to His-SUMO-tagged NEDD8) (UniProt P61081); assay: biolayer interferometry, Ubc12^N8 immobilized, full-length GlyRS 8.07-129 nM
[5] = molecular target: Ubc12^N8: NEDD8-conjugated Ubc12 (C111S, stable ester linkage to His-SUMO-tagged NEDD8) (UniProt P61081); assay: biolayer interferometry (Octet), 30 °C, Ubc12^N8 (100 nM) immobilized on sensor tips, GlyRS 0.25 µM; in the presence of 0.5 mM of the small molecule GlySA

Kd [1] [nM]	Kd [2] [nM]	Kd [3] [nM]	Kd [4] [nM]	Kd [5] [nM]	fold decrease of binding against wild type GlyRS [1] [fold]	Binder
4.32						B1
	22.4	2.12	3.21	7.88		B2
27					9	B3
